Reference: paper PMC12901202

Target: SARS-CoV-2 JN.1 RBD, biotinylated (SARS-CoV-2) (UniProt P0DTC2)
Test: BLI; […]; 300 s association, 300 s dissociation; 10x kinetics buffer; […]; global fit, 1:1 model; […]

**Q.** For “TRI2-2 homotrimeric miniprotein inhibitor (designed binder)”, which Kd is on record?
**A.** The Kd was 6.19 nM.

**Q.** And the koff?
**A.** The koff was 0.00175 s⁻¹.

**Q.** And the kon?
**A.** Its kon is 282000 M⁻¹ s⁻¹.
